Laboratory results reported in paper PMC11998489.

Assays:
Assay in all cases: split reporter (BiFC, NanoBiT); mCherry BiFC (Nm and Cm fusions) in Sf9 cells transfected with a pair of plasmids (2 ug/well each); 36 h p.t.; epifluorescence microscopy; percentage of fluorescent cells in each field
[1] = target: Hse1 (BiFC fusion) (S. frugiperda)
[2] = target: Vps25 (BiFC fusion) (S. frugiperda)
[3] = target: Vps27 (BiFC fusion) (S. frugiperda)
[4] = target: Vps36 (BiFC fusion) (S. frugiperda)

In the case of Chm7 (BiFC fusion) (natural protein), the percentage of fluorescent cells in BiFC [1] is reported as 5%.

Substance Tsg101 (BiFC fusion) (natural protein) has a percentage of fluorescent cells in BiFC [2] of 5% and a percentage of fluorescent cells in BiFC [3] of 5%.

Substance Vps2B (BiFC fusion) (natural protein) has a percentage of fluorescent cells in BiFC [1] of 5%.

Work on Vps28 (BiFC fusion) (natural protein) yielded a percentage of fluorescent cells in BiFC [4] of 5%.
